This experiment concerns the target G3BP1 (human), Q13283. The experiment can be described thus: ITC at 25 °C, peptide titrated into G3BP1.

Kd data for one molecule are collected here from patent publication EP4269424A1, “NOVEL ANTIVIRAL COMPOUNDS AND USE THEREOF” (priority 2022, dated 2023).

Chain of G3BP1 (human), Q13283 (Q13283 1-139 limits assumed): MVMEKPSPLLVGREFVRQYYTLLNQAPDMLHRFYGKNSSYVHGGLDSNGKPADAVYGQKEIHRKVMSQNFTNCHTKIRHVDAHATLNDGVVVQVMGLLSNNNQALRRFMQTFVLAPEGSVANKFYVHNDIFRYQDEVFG

Turning to LTFGDFDEHEVDALASGITFGDFDDW (modifications not checked) [G3BPi WT peptide without CPP], the Kd stood at 3.6 µM.

The term Kd denotes the concentration at which binding is half-saturated. A higher Kd goes with weaker binding.
